For assay [1], the target named is human α2β1 integrin (VLA-2) expressed on human cancer cell lines (human) (UniProt P17301). As to the kind of experiment: flow cytometry, 10 µg/mL hIgG4-FITC control on HPAF-II cells.
Assay [2] shares this target. The assay can be described thus: flow cytometry, 10 µg/mL hIgG4-FITC control on AsPC-1 cells.
Assay [3] has the same target. As to the kind of experiment: flow cytometry, hIgG4-FITC control on HT-1080 cells.
Assay [4] shares this target. As to the kind of experiment: flow cytometry, 10 µg/mL hIgG4-FITC control on SK-BR-3 cells.
Assay [5] deals with T1, human α2β1 integrin (VLA-2) expressed on human cancer cell lines (human, UniProt P17301 30-1181; P05556 21-798).
T1 construct: also called α2 integrin; CD49b (α2 subunit)
T1 sequence (P17301 30-1181 E534K limits assumed, chain 1 of 2): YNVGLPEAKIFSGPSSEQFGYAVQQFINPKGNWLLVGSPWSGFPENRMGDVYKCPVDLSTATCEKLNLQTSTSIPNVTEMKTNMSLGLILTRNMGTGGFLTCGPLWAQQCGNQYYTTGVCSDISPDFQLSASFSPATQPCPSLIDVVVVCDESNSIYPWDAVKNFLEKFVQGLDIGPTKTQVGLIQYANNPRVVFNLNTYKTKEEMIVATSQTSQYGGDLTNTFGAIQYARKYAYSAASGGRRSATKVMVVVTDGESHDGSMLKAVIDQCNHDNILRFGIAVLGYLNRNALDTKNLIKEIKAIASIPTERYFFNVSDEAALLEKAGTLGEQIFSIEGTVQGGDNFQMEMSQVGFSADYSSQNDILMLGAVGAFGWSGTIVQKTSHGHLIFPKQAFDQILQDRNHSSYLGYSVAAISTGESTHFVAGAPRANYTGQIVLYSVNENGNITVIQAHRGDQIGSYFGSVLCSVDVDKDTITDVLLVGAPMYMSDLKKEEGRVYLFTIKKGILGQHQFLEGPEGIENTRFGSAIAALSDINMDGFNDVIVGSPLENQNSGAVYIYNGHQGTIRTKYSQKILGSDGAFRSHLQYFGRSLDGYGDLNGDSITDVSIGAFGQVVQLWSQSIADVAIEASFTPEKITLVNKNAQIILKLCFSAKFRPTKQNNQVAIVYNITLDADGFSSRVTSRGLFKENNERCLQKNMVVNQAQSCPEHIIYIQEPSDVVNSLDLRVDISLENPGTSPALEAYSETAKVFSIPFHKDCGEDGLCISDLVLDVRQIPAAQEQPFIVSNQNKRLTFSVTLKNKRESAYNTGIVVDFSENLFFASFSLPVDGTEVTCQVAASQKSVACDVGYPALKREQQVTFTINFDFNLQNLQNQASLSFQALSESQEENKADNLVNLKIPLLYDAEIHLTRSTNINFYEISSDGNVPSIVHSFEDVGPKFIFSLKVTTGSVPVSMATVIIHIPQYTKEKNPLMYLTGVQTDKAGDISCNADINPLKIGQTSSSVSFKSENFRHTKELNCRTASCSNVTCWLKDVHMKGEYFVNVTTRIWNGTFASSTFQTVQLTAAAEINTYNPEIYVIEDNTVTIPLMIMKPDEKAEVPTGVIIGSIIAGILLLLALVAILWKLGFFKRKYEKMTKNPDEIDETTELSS
T1 sequence (P05556 21-798 limits assumed, chain 2 of 2): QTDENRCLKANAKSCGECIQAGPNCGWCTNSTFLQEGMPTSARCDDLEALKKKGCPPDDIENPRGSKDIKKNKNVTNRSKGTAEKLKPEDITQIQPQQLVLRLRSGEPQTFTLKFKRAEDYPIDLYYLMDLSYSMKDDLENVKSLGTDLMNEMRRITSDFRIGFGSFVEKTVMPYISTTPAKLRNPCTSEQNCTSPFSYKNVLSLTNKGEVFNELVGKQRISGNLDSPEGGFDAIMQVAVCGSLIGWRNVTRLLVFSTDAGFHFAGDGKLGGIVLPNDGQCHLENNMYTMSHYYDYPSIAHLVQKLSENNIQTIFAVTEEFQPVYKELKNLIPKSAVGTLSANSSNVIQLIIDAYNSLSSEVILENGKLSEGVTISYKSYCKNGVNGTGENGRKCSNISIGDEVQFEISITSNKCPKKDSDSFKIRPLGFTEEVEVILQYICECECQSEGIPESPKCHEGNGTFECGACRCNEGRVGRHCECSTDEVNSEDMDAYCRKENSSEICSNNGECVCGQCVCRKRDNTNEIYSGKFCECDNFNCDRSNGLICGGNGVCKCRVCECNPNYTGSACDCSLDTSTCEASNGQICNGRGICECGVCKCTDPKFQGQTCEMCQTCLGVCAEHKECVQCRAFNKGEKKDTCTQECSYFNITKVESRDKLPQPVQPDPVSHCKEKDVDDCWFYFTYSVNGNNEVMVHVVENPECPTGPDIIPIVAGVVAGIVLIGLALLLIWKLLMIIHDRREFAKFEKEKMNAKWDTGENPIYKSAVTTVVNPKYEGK
As to the kind of experiment: inhibition of cell adhesion to human collagen type I; ratio between two cell lines. The method, then: (§1) Ninety six well ELISA plates (black cliniplate, Thermo Firsher scientific, cat n^o 9502867) were coated with 100 μl of human collagen type I (SIGMA, cat n^o C7774) at 50 μg/mL in Acetic Acid 0.02N or in PBS. Collagen was either diluted in acetic acid and incubated for 1 hour at 37° C. or diluted in PBS and incubated overnight at 4° C. Plates were blocked with 150 μl of PBS supplemented with 0.1% BSA or 1% BSA (Sigma, cat n^o A3059). Cells were first labelled with CFSE (Invitrogen cat n^o C34554) into serum free DMEM medium (PAA, cat n^o E15-005). Three μl of a 15 mM CFSE solution was added to 5 ml cells at a concentration between 1×10⁶ cells/ml to 0.6×10⁶ cells/ml. Cells were incubated with CFSE for 10 minutes at 37° C. and CFSE excess was removed by centrifugation of the cells at 900 rpm for 3 min. CFSE-labelled cells were resuspended at a concentration between 0.6×10⁶ to 1×10⁶ cells/ml in DMEM supplemented with 0.1% BSA. […] Wells in the plates were filled with PBS and fluorescence with excitation at 498 nm and emission at 525 nm was measured using Synerg HT2 fluorometer. Data were analyzed using PRISM software. Activity of the anti-VLA-2 antibody was expressed as EC₅₀ which is defined as the concentration of antibody that provokes a response halfway between the baseline and the maximum response. […]

Assay [6] concerns the target T1, human α2β1 integrin (VLA-2) expressed …. As to the kind of experiment: inhibition of adhesion of HT-1080 cells to human collagen type I, mean of 3. The method, then: as §1
Assay [7] shares this target. The assay can be described thus: inhibition of adhesion of AsPC-1 cells to human collagen type I, mean of 2 experiments. How it is done: as §1
For assay [8] the target is unchanged. As to the kind of experiment: inhibition of adhesion of CFSE-labelled AsPC-1 cells to human collagen type I, experiment I. The method, then:
as §1

Assay [9] has the same target. The assay can be described thus: inhibition of adhesion of CFSE-labelled AsPC-1 cells to human collagen type I, experiment II. How it is done: as §1
Assay [10] shares this target. The assay can be described thus: inhibition of adhesion of CFSE-labelled HPAF-II cells to human collagen type I, experiment I. How it is done:
as §1

For assay [11] the target is unchanged. As to the kind of experiment: inhibition of adhesion of CFSE-labelled HPAF-II cells to human collagen type I, experiment II. How it is done:
as §1

Assay [12] has the same target. The assay can be described thus: inhibition of adhesion of HPAF-II cells to human collagen type I, mean of 2 experiments. The method, then:
as §1

The target is the same in assay [13]. As to the kind of experiment: inhibition of adhesion of SK-BR-3 cells to human collagen type I, mean of 2 experiments. How it is done: as §1
For assay [14] the target is unchanged. The assay can be described thus: inhibition of adhesion of CFSE-labelled SK-BR-3 cells to human collagen type I, experiment I. How it is done: as §1
Assay [15] shares this target. As to the kind of experiment: inhibition of adhesion of CFSE-labelled SK-BR-3 cells to human collagen type I, experiment II. The method, then:
as §1

Here are results for three molecules from patent US20100158904A1 (GLENMARK PHARMACEUTICALS S A, published 2010).

human α2β1 integrin (VLA-2) expressed on human cancer cell lines (human), sequence (P17301 30-1181 E534K limits assumed, chain 1 of 2): as the sequence (P17301 30-1181 E534K limits assumed, chain 1 of 2) above
human α2β1 integrin (VLA-2) expressed on human cancer cell lines (human), sequence (chain, as listed by the source limits assumed, chain 2 of 2): as the sequence (P05556 21-798 limits assumed, chain 2 of 2) above

hIgG4 isotype control antibody: the MFI in assay [1] is 14.9; in [2], 6.8; in assay [3], 4.9; in assay [4], 3.4.

B1: TMC-2206, mouse anti-human α2 integrin antibody (BHA2.1 hybridoma) (antibody, V domains shown)
VH: QVQLKESGPGLVAPSQSLSITCTVSGFSLTNYGIHWVRQPPGKGLEWLGVIWARGFTNYNSALMSRLIITKDNSQSQVFLKMNSLQPDDSATYFCARANDGVYYAMDYWGQGTSVTVSS
VL: QFVLTQSPAFLSASPGEKVTMTCSANSSVNYIHWYQQKSGTSPKKWIYDTSKLASGVPVRFSGSGSGTSYSLTISSMETEDAATYYCQQWTTNPLTFGAGTRVELK
notes: Murine monoclonal antibody (Glenmark/Millipore, cat. MAB1998); also called MAB1998
On to B1, for which the “fold EC50 on HPAF-II cells against EC50 on AsPC-1 cells” value in [5] came to 3.6 fold. Further, the concentration for a half-maximal effect (EC50) was 0.097 µg/mL in assay [6]; 0.08 µg/mL in [7]; 0.074 µg/mL in assay [8]; 0.087 µg/mL in assay [9]; 0.326 µg/mL in assay [10]; 0.253 µg/mL in assay [11]. In addition, the EC50 in assay [12] turned out to be 0.29 µg/mL.

B2: GBR500, humanized anti-human α2 integrin antibody (antibody, human IgG4, kappa, V domains shown)
VH: QVQLQESGPGLVKPSETLSLTCTVSGFSLTNYGIHWIRQPPGKGLEWLGVIWARGFTNYNSALMSRLTISKDNSKNQVSLKLSSVTAADTAVYYCARANDGVYYAMDYWGQGTLVTVSS
VL: DFVMTQSPAFLSVTPGEKVTITCSAQSSVNYIHWYQQKPDQAPKKLIYDTSKLASGVPSRFSGSGSGTDYTFTISSLEAEDAATYYCQQWTTNPLTFGQGTKVEIKR
notes: Its isotype-matched control is a humanized IgG4; also called GBR500-FITC; Biotin-GBR500
Take B2: the concentration giving a half-maximal response (EC50) in assay [13] came to 0.036 µg/mL; in assay [14], 0.039 µg/mL; in assay [15], 0.032 µg/mL; in assay [6] it was 0.076 µg/mL; in [7] it was 0.041 µg/mL; in assay [8] it was 0.047 µg/mL. Further, the EC50 in assay [9] was 0.036 µg/mL; in [10] it was 0.224 µg/mL; in [11], 0.103 µg/mL; in assay [12], 0.163 µg/mL. Further, in assay [5], the “fold EC50 on HPAF-II cells against EC50 on AsPC-1 cells” value amounted to 3.9 fold.
